Among the data in paper PMC3078926, “Epistatic Roles for Pseudomonas aeruginosa MutS and DinB (DNA Pol IV) in Coping with Reactive Oxygen Species-Induced DNA Damage” (PLoS ONE, 2011) are Km, kcat and kcat/Km values, retold here.

Substrate in data set [1]: Nc1ccn([C@H]2C[C@H](O)[C@@H](COP(=O)(O)OP(=O)(O)OP(=O)(O)O)O2)c(=O)n1
Kind of data set: purified protein. It counts as biochemical, Pseudomonas aeruginosa. As to conditions: opposite undamaged template dG, 13/20-mer primer/template DNA 100 nM, 200 nM DinB, 10 mM MgCl2, pH 7.5, 25 °C.

Substrate in data set [2]: Nc1ncnc2c1ncn2[C@H]1C[C@H](O)[C@@H](COP(=O)(O)OP(=O)(O)OP(=O)(O)O)O1
As to the kind of experiment: purified protein. As to conditions: opposite template 8-oxo-dG (lesion), 13/20 8-oxo-dG-mer DNA 100 nM, 200 nM DinB, 10 mM MgCl2, pH 7.5, 25 °C. It counts as biochemical, Pseudomonas aeruginosa.

B1: P. aeruginosa DinB (DNA Pol IV) (Pseudomonas aeruginosa PAO1) (protein)
chain: MRKIIHIDCDCFYAALEMRDDPSLRGKALAVGGSPDKRGVVATCSYEARAYGVRSAMAMRTALKLCPDLLVVRPRFDVYRAVSKQIHAIFRDYTDLIEPLSLDEAYLDVSASPHFAGSATRIAQDIRRRVAEELHITVSAGVAPNKFLAKIASDWRKPDGLFVITPEQVDGFVAELPVAKLHGVGKVTAERLARMGIRTCADLRQGSKLSLVREFGSFGERLWGLAHGIDERPVEVDSRRQSVSVECTFDRDLPDLAACLEELPTLLEELDGRLQRLDGSYRPDKPFVKLKFHDFTQTTVEQSGAGRDLESYRQLLGQAFARGNRPVRLIGVGVRLLDLQGAHEQLRLF
notes: C-terminally hexahistidine-tagged, recombinant, purified as described earlier
As to B1, in the data set “purified protein [1]”, the Km amounted to 5.4 ± 2.3 µM, the kcat is 0.12 ± 0.01 s⁻¹ and the kcat/Km came to 22000 M⁻¹ s⁻¹. Besides, in “purified protein [2]”, the Km was 15 ± 5.0 µM, the kcat is 0.066 ± 0.006 s⁻¹ and the kcat/Km was determined as 4000 M⁻¹ s⁻¹.
